The values below come from patent US11466260B2, “Thermostable haloarchaeal inorganic pyrophosphatase” (UNIVERSITY OF FLORIDA RESEARCH FOUNDATION, INCORPORATED, priority 2015, dated 2022).

Read-outs that look alike come from different tables or passages of the source.

One data set concerns the target T1, HvPPA (Haloferax volcanii, UniProt D4GT97).
T1 construct: thrombin-cleavage site (linker between His6 and HvPPA) (N); made in house; host or cells: Haloferax volcanii H26-pJAM2920
T1 sequence (D4GT97 1-177): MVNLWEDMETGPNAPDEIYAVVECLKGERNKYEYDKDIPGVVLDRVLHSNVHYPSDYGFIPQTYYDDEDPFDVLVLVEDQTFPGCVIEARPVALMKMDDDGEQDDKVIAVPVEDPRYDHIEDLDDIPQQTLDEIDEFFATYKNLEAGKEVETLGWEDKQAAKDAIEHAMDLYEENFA
Kind of data set: Sodium fluoride-based inhibition of HvPPA. It is filed as biochemical. The settings on record: Ki.

The conditions of data set [1]: cited from earlier work; for Vmax: highest reported.

Description for HvPPA: A) HvPPA (1.3 μg) was assayed in 1 ml reaction volume containing 1 mM PPi, 10 mM MgCl2, 3 M NaCl and 20 mM Tris-Cl buffer pH 7.5 supplemented with NaF as indicated. Reactions were monitored for 15 min at RT.
HvPPA-mediated hydrolysis of PPi to Pi was determined spectrophotometrically. Reagents were in nanopure water (Barnstead/Thermolyne Nanopure lab water system). Sodium pyrophosphate tetrabasic decahydrate (Sigma Aldrich) was used as a substrate. For kinetic measurements, reaction mixtures (500 μl total) contained 0.5-1 μg HvPPA and 1 mM PPi in high-salt buffer (3 M NaCl and 20 mM Tris-HCl, pH 8.5). Reactions were incubated at 42° C. for 1-3 min. Orthophosphate levels were determined by malachite green assay. Briefly, 2.5 ml of 14% (w/v) (NH4)2MoO4 and 0.2 ml of 11% (v/v) TWEEN 20 ® (Polyoxyethylene sorbitan monolaurate) were added into a 10-ml color reagent I (containing 1.67 ml conc. sulfuric acid, 8.33 ml nanopure H2O, and 12.22 mg malachite green). In triplicate, 50 μl of the color reagent was mixed with 200 μl of the reaction mixture and incubated at room temperature for 10 min. The formation of (MG^+)(H2PMo12O40) (where MG^+ represents ionized malachite green) was monitored at A630. A less sensitive malachite green assay was also used in which reaction aliquots (50 μl) were mixed with 250 μl color reagent II and 10 μl 1.5% (v/v) TWEEN 20 ® (Polyoxyethylene sorbitan monolaurate) in triplicate; product formation was immediately monitored at A650. Color reagent II was generated by mixing 1 volume of 4.2% (w/v) (NH4)2MoO4 in 5 N HCl with 3 volumes of 0.2% (w/v) malachite green; after 30 minutes, the solution was filtered with a 0.45 μm filter and stored at room temperature. Freeze-dried KH2PO4 was used as the standard. Assay mixtures with PPi minus HvPPA were used for individual background subtraction. All proteins used in this assay were buffer-exchanged with Tris-high-salt buffer in nanopure H2O prior to use. All experiments were performed in triplicate and the mean±standard deviation (S.D.) was calculated.

On to `F` [NaF, sodium fluoride], for which the Ki (commonly the equilibrium dissociation constant of an inhibitor or competing ligand from its target) was 200 µM on HvPPA (pH 7.5) and 1800 µM at HvPPA (pH 8.5).

B1: Pyrococcus horikoshii: Class A type inorganic pyrophosphatase of Pyrococcus horikoshii (protein, UniProt O59570 1-178, looked up)
Inorganic pyrophosphatase: MNPFHDLEPGPNVPEVVYALIEIPKGSRNKYELDKETGLLKLDRVLYTPFHYPVDYGIIPRTWYEDGDPFDIMVIMREPTYPLTIIEARPIGLFKMIDSGDKDYKVLAVPVEDPYFKDWKDISDVPKAFLDEIAHFFKRYKELEGKEIIVEGWEGAEAAKREILRAIEMYKEKFGKKE
Consider B1, for which the Vmax in data set [1] (60° C.) is listed as 930 U · mg^−1. The Michaelis-Menten constant (Km) (usually the concentration of substrate that gives half-maximal velocity) in data set [1] (for Mg^2+, read-out: Km Mg^2+) is 300 µM. For the same molecule, in data set [1] (in words), the “Hill coefficient(s)” value is listed as “Cooperative”. In addition, in data set [1] (substrate ADP), the “Substrate(s) hydrolyzed: ADP” value is listed as “(2.9%)]”. The “Substrate(s) hydrolyzed: ATP” value in data set [1] (substrate ATP) is “ATP (5.9%); ADP”. The “Substrate(s) hydrolyzed: P3” value in data set [1] (substrate P3) is 2.7%.

B2: Methanothermobacter thermautotrophicus: Class A type inorganic pyrophosphatase of Methanothermobacter thermautotrophicus (Methanobacterium thermoautotrophicum) (protein, UniProt O26363 1-176, looked up)
Inorganic pyrophosphatase: MNLWKDIEPGPSVPEVVYAVVEIPKGSRNKYEYHKDLQAFALDRVLYSAVFYPAEYGIIPRTLYDDGDPMDILVLMDEPTFPGCIIESRPIGLLRMIDGGDQDDKILAVPVADPHFADVKDISDIPEHNLKEIANFFETYKKLEGKKTETLGWEGAEKAFEAVNHSIELYRKKYME
Consider B2, for which the “pH, optimum” value in data set [1] (60° C.) is given as “pH 7.7 (60° C.)”. Also, in data set [1], the “Hill coefficient(s) (Mg^2+)” value was 2.0 (Mg^2+) and the Vmax was 570 U · mg^−1. Also, the “Hill coefficient(s) (PPi)” value in data set [1] (PPi) is on record as 3.3 (PPi),. Besides, in data set [1] (for Mg^2+, read-out: Km Mg^2+), the Km was 4900 µM. In data set [1] (for PPi, read-out: Km PPi), the Michaelis-Menten constant (Km) was 160 µM.

B3: Thermoplasma acidophilum: Class A type inorganic pyrophosphatase of Thermoplasma acidophilum (protein, UniProt P37981 1-179, looked up)
Inorganic pyrophosphatase: MESFYHSVPVGPKPPEEVYVIVEIPRGSRVKYEIAKDFPGMLVDRVLYSSVVYPVDYGLIPRTLYYDGDPMDVMVLISQPTFPGAIMKVRPIGMMKMVDQGETDNKILAVFDKDPNVSYIKDLKDVNAHLLDEIANFFSTYKILEKKETKVLGWEGKEAALKEIEVSIKMYEEKYGKKN
Regarding B3, the Vmax in data set [1] (56° C.) is given as 1100 U · mg^−1. The “Hill coefficient(s) (Mg^2+)” value in data set [1] is 1.8 (Mg^2+). Also, the Michaelis constant (Km) is 1700 µM in data set [1] (for Mg^2+, read-out: Km Mg^2+) and 7 µM in data set [1] (for PPi, read-out: Km PPi).
